Experimental data taken from the supplement of paper PMC9876800.

System: peptide library, one residue held at a place counted from the S/T acceptor
Assay: relative phosphorylation of the sub-library (ratio to the mean residue at this position); higher = residue favoured
Conditions: human
Summary of the method: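 Spots on streptavidin membranes were phosphorimaged and quantified by densitometry to measure phosphorylation of biotinylated degenerate peptide sub-libraries by purified recombinant kinases, human or orthologue constructs. The reactions ran in 384-well plates for 90 min under kinase-specific conditions, with peptides at 50 μM and 50 μM ATP spiked with γ-32P-ATP. Relative sub-library phosphorylation is the ratio to the mean residue at that position.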

Sequence of SIK1, construct: aa1-303 (P57059 1-303, looked up): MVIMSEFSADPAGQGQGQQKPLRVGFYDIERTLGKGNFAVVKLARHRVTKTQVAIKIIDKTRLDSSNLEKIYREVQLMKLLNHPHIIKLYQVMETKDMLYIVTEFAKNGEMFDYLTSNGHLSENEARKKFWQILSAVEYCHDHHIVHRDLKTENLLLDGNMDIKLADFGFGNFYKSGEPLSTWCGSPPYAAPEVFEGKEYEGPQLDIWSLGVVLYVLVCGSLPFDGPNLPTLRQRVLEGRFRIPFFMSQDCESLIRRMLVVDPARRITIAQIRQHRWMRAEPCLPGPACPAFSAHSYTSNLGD
Sequence of HIPK1, construct: aa158-555 (Q86Z02 158-555, looked up): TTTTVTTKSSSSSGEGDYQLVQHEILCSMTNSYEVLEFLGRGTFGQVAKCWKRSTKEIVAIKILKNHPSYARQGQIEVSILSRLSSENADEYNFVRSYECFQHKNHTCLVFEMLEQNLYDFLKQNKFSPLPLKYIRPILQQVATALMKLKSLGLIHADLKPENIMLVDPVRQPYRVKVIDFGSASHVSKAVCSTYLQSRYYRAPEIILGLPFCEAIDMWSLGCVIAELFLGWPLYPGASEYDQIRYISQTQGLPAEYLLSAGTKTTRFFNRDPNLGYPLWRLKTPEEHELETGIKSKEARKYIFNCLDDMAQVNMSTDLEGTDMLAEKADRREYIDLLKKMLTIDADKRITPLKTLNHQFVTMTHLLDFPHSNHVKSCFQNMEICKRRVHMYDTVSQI
Sequence of CHEK1, construct: Full length (O14757 whole entry, looked up): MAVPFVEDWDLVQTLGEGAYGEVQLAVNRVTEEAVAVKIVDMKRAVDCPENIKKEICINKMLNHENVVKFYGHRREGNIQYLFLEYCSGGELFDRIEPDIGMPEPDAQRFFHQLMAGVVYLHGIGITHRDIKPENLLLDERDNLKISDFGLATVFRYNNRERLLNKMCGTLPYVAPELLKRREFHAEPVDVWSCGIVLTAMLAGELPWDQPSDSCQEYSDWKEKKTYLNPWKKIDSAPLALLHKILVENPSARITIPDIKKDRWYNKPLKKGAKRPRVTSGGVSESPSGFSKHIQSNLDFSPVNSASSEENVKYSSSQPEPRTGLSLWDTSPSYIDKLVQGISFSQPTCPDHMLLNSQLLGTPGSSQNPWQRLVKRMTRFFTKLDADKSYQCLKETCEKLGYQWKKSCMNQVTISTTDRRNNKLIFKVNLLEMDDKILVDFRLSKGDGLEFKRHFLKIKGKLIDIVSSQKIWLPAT
Sequence of CDK9, construct: Full length (P50750 whole entry, looked up): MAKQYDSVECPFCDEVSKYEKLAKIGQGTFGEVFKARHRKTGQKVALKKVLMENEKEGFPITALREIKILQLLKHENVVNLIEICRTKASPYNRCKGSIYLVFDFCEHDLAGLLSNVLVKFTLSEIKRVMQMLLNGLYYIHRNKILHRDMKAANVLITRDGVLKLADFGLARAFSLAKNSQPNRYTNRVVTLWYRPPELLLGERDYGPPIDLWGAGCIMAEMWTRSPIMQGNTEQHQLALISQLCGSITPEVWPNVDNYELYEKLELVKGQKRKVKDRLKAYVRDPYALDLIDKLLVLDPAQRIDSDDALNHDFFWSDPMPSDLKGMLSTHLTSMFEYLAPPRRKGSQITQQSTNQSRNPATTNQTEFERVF

HIPK1, construct: aa158-555 (from UniProt Q86Z02)
relative phosphorylation
Conditions | at +1 | at +2 | at +3 | at +4 | at -1 | at -2 | at -3 | at -4 | at -5
A fixed | 0.711 | 1.04 | 0.979 | 0.83 | 1.21 | 2.16 | 0.93 | 1 | 0.905
D fixed | 0.165 | 0.679 | 0.59 | 0.795 | 0.471 | 0.278 | 0.49 | 0.719 | 0.716
E fixed | 0.193 | 0.512 | 0.51 | 0.687 | 0.485 | 0.283 | 0.464 | 0.762 | 0.634
F fixed | 0.264 | 1.15 | 0.885 | 1.04 | 0.567 | 0.398 | 0.342 | 0.668 | 0.793
G fixed | 0.896 | 1.37 | 1.19 | 1.14 | 1.26 | 0.872 | 1.27 | 1.13 | 0.991
H fixed | 0.354 | 1.23 | 1.17 | 1.07 | 0.881 | 0.454 | 0.698 | 0.884 | 1.06
I fixed | 0.421 | 0.708 | 0.92 | 0.978 | 0.536 | 0.999 | 0.42 | 0.781 | 0.883
K fixed | 0.503 | 1.42 | 0.886 | 1.12 | 1.75 | 0.898 | 1.13 | 1.3 | 1.26
L fixed | 0.329 | 0.928 | 1.2 | 1 | 0.682 | 0.862 | 0.525 | 0.876 | 0.84
M fixed | 0.272 | 0.815 | 0.972 | 1.04 | 0.916 | 0.607 | 0.484 | 0.793 | 0.742
N fixed | 0.318 | 1.04 | 0.826 | 1.01 | 0.761 | 0.735 | 0.677 | 0.704 | 0.928
P fixed | 8.97 | 1.1 | 2.4 | 1.14 | 1.91 | 2.58 | 1.07 | 1.22 | 1.21
Q fixed | 0.399 | 0.888 | 0.885 | 0.981 | 0.967 | 0.605 | 0.71 | 0.856 | 0.89
R fixed | 1.85 | 1.55 | 1.06 | 1.13 | 2.49 | 3.33 | 6.49 | 3.08 | 2.25
V fixed | 0.793 | 0.755 | 0.863 | 0.954 | 0.645 | 1.17 | 0.47 | 0.706 | 0.794
W fixed | 0.284 | 0.966 | 0.886 | 1.16 | 0.673 | 0.389 | 0.426 | 0.784 | 0.825
Y fixed | 0.276 | 0.848 | 0.772 | 0.917 | 0.801 | 0.381 | 0.397 | 0.723 | 1.27
pThr fixed | 0.387 | 0.46 | 0.541 | 0.711 | 0.485 | 1.05 | 0.712 | 0.94 | 1.05
pTyr fixed | 0.453 | 0.444 | 0.772 | 0.757 | 0.599 | 0.431 | 0.644 | 0.648 | 1.04

CHEK1, construct: Full length (from UniProt O14757)
relative phosphorylation
Conditions | at +1 | at +2 | at +3 | at +4 | at -1 | at -2 | at -3 | at -4 | at -5
A fixed | 0.806 | 1.04 | 0.824 | 0.997 | 0.779 | 1.18 | 0.579 | 1.17 | 0.706
D fixed | 1.03 | 1.19 | 1.4 | 1.19 | 1.06 | 0.387 | 0.353 | 0.714 | 0.379
E fixed | 0.981 | 0.932 | 1.01 | 0.882 | 0.709 | 0.977 | 0.853 | 1.15 | 0.261
F fixed | 1.43 | 0.719 | 0.731 | 0.754 | 0.637 | 1.16 | 0.39 | 0.817 | 2.06
G fixed | 1.21 | 0.978 | 1.16 | 1.18 | 0.915 | 0.619 | 0.685 | 0.811 | 0.331
H fixed | 1.21 | 1.38 | 1.2 | 1.17 | 1.27 | 2.01 | 2.02 | 1.14 | 0.51
I fixed | 0.801 | 0.808 | 0.832 | 0.968 | 0.396 | 0.56 | 0.253 | 0.952 | 2.21
K fixed | 0.614 | 0.531 | 0.588 | 0.687 | 1.54 | 0.887 | 2.36 | 1.45 | 0.405
L fixed | 0.98 | 0.756 | 0.908 | 1.18 | 0.805 | 0.738 | 0.281 | 0.919 | 2.9
M fixed | 1.57 | 0.935 | 0.985 | 1.06 | 0.901 | 1.14 | 0.625 | 1.26 | 1.98
N fixed | 1.65 | 1.82 | 1.47 | 1.23 | 1.68 | 1.42 | 0.992 | 0.9 | 0.361
P fixed | 0.429 | 0.973 | 1.2 | 1.57 | 1.84 | 0.547 | 1.37 | 0.458 | 0.49
Q fixed | 1.19 | 1.36 | 1.15 | 1.12 | 1.36 | 1.17 | 0.995 | 1.07 | 0.422
R fixed | 0.599 | 0.692 | 0.57 | 0.547 | 0.98 | 0.895 | 3.45 | 1.41 | 0.759
V fixed | 0.686 | 0.96 | 0.802 | 0.713 | 0.48 | 0.701 | 0.323 | 1.05 | 1.25
W fixed | 0.94 | 1.01 | 1.18 | 0.874 | 0.682 | 1.2 | 0.857 | 0.829 | 1.32
Y fixed | 0.869 | 0.921 | 0.995 | 0.886 | 0.963 | 1.39 | 0.617 | 0.902 | 0.661
pThr fixed | 0.831 | 0.822 | 0.733 | 0.892 | 0.188 | 0.139 | 0.198 | 0.311 | 0.164
pTyr fixed | 0.821 | 1.17 | 0.94 | 0.812 | 0.495 | 0.382 | 0.193 | 0.343 | 0.443

CDK9, construct: Full length (from UniProt P50750)
relative phosphorylation
Conditions | at +1 | at +2 | at +3 | at +4 | at -1 | at -2 | at -3 | at -4 | at -5
A fixed | 0.39 | 0.956 | 0.702 | 0.931 | 1.2 | 1.52 | 1.17 | 1.19 | 1.13
D fixed | 0.167 | 0.493 | 0.429 | 0.79 | 0.328 | 0.322 | 0.339 | 0.607 | 0.572
E fixed | 0.212 | 0.478 | 0.409 | 0.913 | 0.34 | 0.392 | 0.382 | 0.661 | 0.514
F fixed | 0.398 | 0.953 | 0.593 | 1.01 | 0.974 | 0.919 | 1.01 | 1.13 | 1.25
G fixed | 0.943 | 1.35 | 0.85 | 1.13 | 1.34 | 1.12 | 1.82 | 1.14 | 1.01
H fixed | 0.286 | 1.57 | 3 | 1.45 | 1.02 | 0.973 | 1.12 | 1.13 | 1.27
I fixed | 0.306 | 0.708 | 0.547 | 0.871 | 0.353 | 0.956 | 0.902 | 0.868 | 0.858
K fixed | 0.328 | 1.24 | 0.828 | 0.752 | 1.51 | 0.91 | 0.939 | 1.1 | 1.09
L fixed | 0.404 | 0.736 | 0.453 | 0.791 | 0.98 | 0.95 | 0.868 | 0.914 | 0.82
M fixed | 0.347 | 0.769 | 0.478 | 0.893 | 1.75 | 1.53 | 0.963 | 0.969 | 0.853
N fixed | 0.217 | 1.18 | 0.79 | 0.983 | 0.82 | 0.805 | 0.896 | 0.895 | 0.876
P fixed | 11.4 | 0.652 | 1.38 | 0.984 | 1.14 | 1.32 | 1.15 | 1.06 | 1.01
Q fixed | 0.285 | 0.928 | 0.987 | 0.928 | 1.08 | 0.796 | 0.813 | 0.804 | 0.833
R fixed | 0.327 | 2.31 | 2.45 | 0.973 | 1.78 | 1.23 | 1.68 | 1.18 | 1.23
V fixed | 0.388 | 0.734 | 0.545 | 0.84 | 0.559 | 0.821 | 0.939 | 0.855 | 0.892
W fixed | 0.331 | 0.95 | 1.28 | 1.57 | 0.836 | 1.32 | 0.958 | 1.31 | 1.46
Y fixed | 0.315 | 0.999 | 1.28 | 1.19 | 0.992 | 1.12 | 1.05 | 1.19 | 1.33
pThr fixed | 0.374 | 0.622 | 0.475 | 0.979 | 0.284 | 0.487 | 0.615 | 0.723 | 0.719
pTyr fixed | 0.379 | 0.536 | 1.18 | 1.2 | 0.558 | 0.526 | 0.607 | 0.838 | 0.714

SIK1, construct: aa1-303 (from UniProt P57059)
relative phosphorylation
Conditions | at +1 | at +2 | at +3 | at +4 | at -1 | at -2 | at -3 | at -4 | at -5
A fixed | 0.56 | 1.1 | 0.618 | 0.641 | 0.972 | 1.89 | 0.589 | 0.941 | 1.01
D fixed | 0.593 | 0.666 | 1.84 | 0.416 | 0.724 | 0.326 | 0.282 | 0.786 | 0.672
E fixed | 0.718 | 0.524 | 0.523 | 0.334 | 0.46 | 0.304 | 0.309 | 0.966 | 0.746
F fixed | 0.996 | 0.694 | 1.08 | 0.86 | 0.432 | 1.13 | 0.47 | 0.768 | 1.22
G fixed | 0.493 | 0.841 | 0.595 | 0.697 | 2.75 | 0.851 | 0.382 | 1.01 | 0.737
H fixed | 0.797 | 0.662 | 1.18 | 0.767 | 0.966 | 1.44 | 0.877 | 1.24 | 0.829
I fixed | 1.18 | 1.06 | 0.907 | 2.22 | 0.289 | 0.451 | 0.24 | 0.457 | 0.721
K fixed | 0.839 | 0.992 | 0.716 | 0.722 | 1.76 | 1.23 | 2.52 | 1.61 | 1.31
L fixed | 1.11 | 0.626 | 0.992 | 4.05 | 0.722 | 0.35 | 0.343 | 0.535 | 1.7
M fixed | 1.87 | 0.998 | 0.928 | 1.48 | 0.82 | 0.556 | 0.508 | 0.93 | 1.09
N fixed | 1.2 | 1.09 | 2.97 | 0.688 | 1.43 | 0.809 | 0.587 | 1.01 | 0.894
P fixed | 0.315 | 1.08 | 0.439 | 0.676 | 1.24 | 0.347 | 0.505 | 1.09 | 0.831
Q fixed | 2.08 | 0.958 | 0.965 | 0.557 | 1.4 | 0.784 | 0.675 | 1.01 | 0.958
R fixed | 1.16 | 1.33 | 0.659 | 0.518 | 1.22 | 1.35 | 6.57 | 1.86 | 1.65
V fixed | 1.23 | 1.1 | 0.599 | 1.12 | 0.565 | 0.868 | 0.329 | 0.512 | 0.744
W fixed | 0.868 | 2.13 | 0.916 | 0.695 | 0.516 | 2.72 | 1.25 | 1.24 | 1.05
Y fixed | 0.982 | 1.14 | 1.08 | 0.564 | 0.732 | 1.59 | 0.569 | 1.03 | 0.832
pThr fixed | 0.764 | 0.579 | 0.35 | 0.475 | 0.285 | 0.388 | 0.433 | 0.706 | 0.562
pTyr fixed | 0.75 | 0.358 | 0.419 | 0.526 | 0.812 | 0.469 | 0.515 | 0.699 | 0.731
